# Source: US20200319204A1
# How the values were obtained:
# [1] = target: semisynthetic H3K9me3 nucleosome (internal standard ladder) (human) (UniProt Q71DI3); test: multi-standard ICeChIP-seq, six nucleosome ladders doped equimolar into mESC nuclei
# [2] = target: semisynthetic H3K4me3 nucleosome (internal standard ladder) (human) (UniProt Q71DI3); test: ICeChIP-qPCR, capture of barcoded nucleosome standards doped into mESC nucleosomes
# [3] = target: semisynthetic H3K36me3 nucleosome (internal standard) (human) (UniProt Q71DI3); test: as above
# [4] = target: unmodified nucleosome (internal standard) (human) (UniProt Q71DI3); test: as above
# [5] = target: semisynthetic H3K27me3 nucleosome (internal standard ladder) (human) (UniProt Q71DI3); test: multi-standard ICeChIP-seq, six nucleosome ladders doped equimolar into mESC nuclei
substance,measurement,setting,value
H3K27me3 antibody (Millipore 07-449),percent of the on-target signal,[1],26%
H3K4me3 antibody (Active Motif AM39159),apparent specificity (on target signal against H3K36me3 nucleosome),[2],30 fold
same,"enrichment (internal standard, ICeChIP-qPCR)",[2],81
same,"enrichment (internal standard, ICeChIP-qPCR)",[3],2.8
same,"enrichment (internal standard, ICeChIP-qPCR)",[4],1.9
"H3K9me3 antibody M309M3-A (Hattori et al., 2013)",percent of the on-target signal,[5],10%
